Assay results: publication PMC9482650, “Quantitative fragmentomics allow affinity mapping of interactomes” (Nature Communications, 2022)

B1: SDK2, Q58EX2 (peptide)
chain: APIAGFSSFV
B2: KIRREL1, Q96J84 (peptide)
chain: RFQQRMQTHV
B3: AQP3, Q92482 (peptide)
chain: LAHVKHKEQI
B4: CCRL2, O00421 (peptide)
chain: REEPDHSTEV

molecular target: T1, PDZD2_2, O15018; test: holdup assay; design: key: below the threshold = too weak to quantify, mostly under pKd 3.1 to 4; settings: plain residues with an end cap or a label only (N-terminal biotin on a linker: ado-ado)
T1 sequence (O15018 329-429, limits assumed, looked up): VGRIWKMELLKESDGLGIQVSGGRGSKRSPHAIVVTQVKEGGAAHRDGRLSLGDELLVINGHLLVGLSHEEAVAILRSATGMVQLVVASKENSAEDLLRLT

pKd	Binder
5.54	B1
4.4	B2
below the threshold	B3
5.32	B4

molecular target: NOS1, P29475; test: holdup assay; design: key: below the threshold = too weak to quantify, mostly under pKd 3.1 to 4; settings: plain residues with an end cap or a label only (N-terminal biotin on a linker: ado-ado)
Sequence (P29475 9-101): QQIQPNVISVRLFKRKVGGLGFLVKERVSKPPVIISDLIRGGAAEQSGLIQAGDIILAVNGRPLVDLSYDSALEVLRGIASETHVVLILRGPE

pKd	Binder
3.53	B1
below the threshold	B2
below the threshold	B3
below the threshold	B4

molecular target: PARD3_3, Q8TEW0; test: holdup assay; design: key: below the threshold = too weak to quantify, mostly under pKd 3.1 to 4; settings: plain residues with an end cap or a label only (N-terminal biotin on a linker: ado-ado)
Sequence (Q8TEW0 582-685): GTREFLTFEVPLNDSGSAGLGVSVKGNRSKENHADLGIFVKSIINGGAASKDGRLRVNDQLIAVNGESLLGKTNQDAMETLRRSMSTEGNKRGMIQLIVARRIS

pKd	Binder
3.56	B1
below the threshold	B2
below the threshold	B3
3.61	B4

molecular target: GORASP1, Q9BQQ3; test: holdup assay; design: key: below the threshold = too weak to quantify, mostly under pKd 3.1 to 4; settings: plain residues with an end cap or a label only (N-terminal biotin on a linker: ado-ado)
Sequence (Q9BQQ3 1-208): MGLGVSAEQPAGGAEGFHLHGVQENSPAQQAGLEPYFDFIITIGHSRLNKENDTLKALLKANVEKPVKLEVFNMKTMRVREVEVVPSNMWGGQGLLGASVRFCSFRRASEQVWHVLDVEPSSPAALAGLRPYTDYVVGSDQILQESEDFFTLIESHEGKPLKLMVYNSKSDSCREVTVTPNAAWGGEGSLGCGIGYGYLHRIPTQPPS

pKd	Binder
3.75	B1
below the threshold	B2
below the threshold	B3
below the threshold	B4

molecular target: T2, PTPN13_1, Q12923; test: holdup assay; design: key: below the threshold = too weak to quantify, mostly under pKd 3.1 to 4; settings: plain residues with an end cap or a label only (N-terminal biotin on a linker: ado-ado)
T2 sequence (Q12923 1088-1188, limits assumed, looked up): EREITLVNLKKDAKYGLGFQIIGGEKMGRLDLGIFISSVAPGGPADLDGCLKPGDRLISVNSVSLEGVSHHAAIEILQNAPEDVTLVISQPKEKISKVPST

pKd	Binder
below the threshold	B1
below the threshold	B2
below the threshold	B3
below the threshold	B4

molecular target: GRIP2_3, Q9C0E4; test: holdup assay; design: key: below the threshold = too weak to quantify, mostly under pKd 3.1 to 4; settings: plain residues with an end cap or a label only (N-terminal biotin on a linker: ado-ado)
Sequence (Q9C0E4 238-339): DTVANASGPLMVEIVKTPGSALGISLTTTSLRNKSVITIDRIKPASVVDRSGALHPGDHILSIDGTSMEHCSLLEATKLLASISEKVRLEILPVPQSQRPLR

pKd	Binder
below the threshold	B1
below the threshold	B2
below the threshold	B3
below the threshold	B4

molecular target: Inadl_3, Q8NI35; test: holdup assay; design: key: below the threshold = too weak to quantify, mostly under pKd 3.1 to 4; settings: plain residues with an end cap or a label only (N-terminal biotin on a linker: ado-ado)
Sequence (Q8NI35 359-469): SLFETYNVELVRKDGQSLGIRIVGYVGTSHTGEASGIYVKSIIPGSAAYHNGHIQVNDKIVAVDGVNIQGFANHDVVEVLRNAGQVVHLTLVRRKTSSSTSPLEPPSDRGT

pKd	Binder
3.86	B1
below the threshold	B2
below the threshold	B3
3.85	B4

molecular target: GRID2IP_2, A4D2P6; test: holdup assay; design: key: below the threshold = too weak to quantify, mostly under pKd 3.1 to 4; settings: plain residues with an end cap or a label only (N-terminal biotin on a linker: ado-ado)
Sequence (A4D2P6 272-370): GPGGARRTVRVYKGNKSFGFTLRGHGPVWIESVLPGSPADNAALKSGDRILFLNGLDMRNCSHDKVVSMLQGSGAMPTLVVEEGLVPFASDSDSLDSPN

pKd	Binder
4.61	B1
3.96	B2
below the threshold	B3
4.15	B4

molecular target: T3, HTRA4, P83105; test: holdup assay; design: key: below the threshold = too weak to quantify, mostly under pKd 3.1 to 4; settings: plain residues with an end cap or a label only (N-terminal biotin on a linker: ado-ado)
T3 sequence (P83105 378-476, limits assumed, looked up): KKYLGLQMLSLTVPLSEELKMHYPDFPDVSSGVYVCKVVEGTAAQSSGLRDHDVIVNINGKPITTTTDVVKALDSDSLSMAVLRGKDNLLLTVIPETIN

pKd	Binder
below the threshold	B1
4.14	B2
3.79	B3
below the threshold	B4

molecular target: SNX27, Q96L92; test: holdup assay; design: key: below the threshold = too weak to quantify, mostly under pKd 3.1 to 4; settings: plain residues with an end cap or a label only (N-terminal biotin on a linker: ado-ado)

pKd	Binder
4.38	B1
3.85	B2
below the threshold	B3
4.73	B4

molecular target: LNX1_3, Q8TBB1; test: holdup assay; design: key: below the threshold = too weak to quantify, mostly under pKd 3.1 to 4; settings: plain residues with an end cap or a label only (N-terminal biotin on a linker: ado-ado)
Sequence (Q8TBB1 500-596): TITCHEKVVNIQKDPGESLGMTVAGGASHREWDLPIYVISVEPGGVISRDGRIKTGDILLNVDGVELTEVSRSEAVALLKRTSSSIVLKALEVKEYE

pKd	Binder
below the threshold	B1
below the threshold	B2
below the threshold	B3
below the threshold	B4

molecular target: T4, LNX2_2, Q8N448; test: holdup assay; design: key: below the threshold = too weak to quantify, mostly under pKd 3.1 to 4; settings: plain residues with an end cap or a label only (N-terminal biotin on a linker: ado-ado)
T4 sequence (Q8N448 334-432, limits assumed, looked up): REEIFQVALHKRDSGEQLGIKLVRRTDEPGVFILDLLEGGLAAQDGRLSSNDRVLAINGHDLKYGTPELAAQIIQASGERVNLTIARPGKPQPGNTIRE

pKd	Binder
4.13	B1
4.08	B2
below the threshold	B3
4.09	B4

molecular target: T5, PDZRN3_1, Q9UPQ7; test: holdup assay; design: key: below the threshold = too weak to quantify, mostly under pKd 3.1 to 4; settings: plain residues with an end cap or a label only (N-terminal biotin on a linker: ado-ado)
T5 sequence (Q9UPQ7 244-349, limits assumed, looked up): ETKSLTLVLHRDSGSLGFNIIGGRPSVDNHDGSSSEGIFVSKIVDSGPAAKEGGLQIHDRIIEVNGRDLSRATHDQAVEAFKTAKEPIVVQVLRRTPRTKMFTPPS

pKd	Binder
3.78	B1
below the threshold	B2
below the threshold	B3
4.2	B4

molecular target: T6, RAPGEF6, Q8TEU7; test: holdup assay; design: key: below the threshold = too weak to quantify, mostly under pKd 3.1 to 4; settings: plain residues with an end cap or a label only (N-terminal biotin on a linker: ado-ado)
T6 sequence (Q8TEU7 525-625, limits assumed, looked up): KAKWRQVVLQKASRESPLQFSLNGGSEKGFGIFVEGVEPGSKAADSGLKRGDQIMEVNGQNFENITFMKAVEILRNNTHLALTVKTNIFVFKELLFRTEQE

pKd	Binder
below the threshold	B1
below the threshold	B2
below the threshold	B3
below the threshold	B4

molecular target: T7, ARHGEF11, O15085; test: holdup assay; design: key: below the threshold = too weak to quantify, mostly under pKd 3.1 to 4; settings: plain residues with an end cap or a label only (N-terminal biotin on a linker: ado-ado)
T7 sequence (O15085 42-136, limits assumed, looked up): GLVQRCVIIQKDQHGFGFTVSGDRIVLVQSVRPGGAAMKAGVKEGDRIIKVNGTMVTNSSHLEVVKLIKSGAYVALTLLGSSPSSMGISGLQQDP

pKd	Binder
3.72	B1
4.19	B2
below the threshold	B3
4.77	B4

molecular target: LIMK2, P53671; test: holdup assay; design: key: below the threshold = too weak to quantify, mostly under pKd 3.1 to 4; settings: plain residues with an end cap or a label only (N-terminal biotin on a linker: ado-ado)
Sequence (P53671 143-248): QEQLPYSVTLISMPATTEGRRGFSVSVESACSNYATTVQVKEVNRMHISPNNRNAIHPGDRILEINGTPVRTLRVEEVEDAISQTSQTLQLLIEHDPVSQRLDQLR

pKd	Binder
below the threshold	B1
below the threshold	B2
below the threshold	B3
below the threshold	B4

molecular target: MAGI2_5, Q86UL8; test: holdup assay; design: key: below the threshold = too weak to quantify, mostly under pKd 3.1 to 4; settings: plain residues with an end cap or a label only (N-terminal biotin on a linker: ado-ado)
Sequence (Q86UL8 915-1017): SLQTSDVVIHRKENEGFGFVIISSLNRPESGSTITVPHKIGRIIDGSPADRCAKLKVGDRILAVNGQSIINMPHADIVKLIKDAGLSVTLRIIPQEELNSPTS

pKd	Binder
4.44	B1
3.74	B2
below the threshold	B3
4.68	B4

molecular target: MAGI1_2, Q96QZ7; test: holdup assay; design: key: below the threshold = too weak to quantify, mostly under pKd 3.1 to 4; settings: plain residues with an end cap or a label only (N-terminal biotin on a linker: ado-ado)
Sequence (Q96QZ7 456-580): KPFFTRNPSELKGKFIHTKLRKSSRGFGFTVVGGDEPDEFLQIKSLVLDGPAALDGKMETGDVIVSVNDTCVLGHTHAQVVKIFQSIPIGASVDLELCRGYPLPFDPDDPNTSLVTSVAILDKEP

pKd	Binder
below the threshold	B1
5.41	B2
below the threshold	B3
below the threshold	B4

molecular target: T8, CARD11, Q9BXL7; test: holdup assay; design: key: below the threshold = too weak to quantify, mostly under pKd 3.1 to 4; settings: plain residues with an end cap or a label only (N-terminal biotin on a linker: ado-ado)
T8 sequence (Q9BXL7 662-765, limits assumed, looked up): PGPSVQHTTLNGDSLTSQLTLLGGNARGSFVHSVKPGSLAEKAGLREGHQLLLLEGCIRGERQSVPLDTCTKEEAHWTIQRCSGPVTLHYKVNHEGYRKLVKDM

pKd	Binder
below the threshold	B1
below the threshold	B2
below the threshold	B3
below the threshold	B4

molecular target: NHERF4_2, Q86UT5; test: holdup assay; design: key: below the threshold = too weak to quantify, mostly under pKd 3.1 to 4; settings: plain residues with an end cap or a label only (N-terminal biotin on a linker: ado-ado)
Sequence (Q86UT5 220-308): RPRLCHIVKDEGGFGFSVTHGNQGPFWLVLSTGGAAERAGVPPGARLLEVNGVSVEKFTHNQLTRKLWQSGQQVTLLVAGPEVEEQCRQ

pKd	Binder
below the threshold	B1
below the threshold	B2
below the threshold	B3
below the threshold	B4

molecular target: T9, DVL3, Q92997; test: holdup assay; design: key: below the threshold = too weak to quantify, mostly under pKd 3.1 to 4; settings: plain residues with an end cap or a label only (N-terminal biotin on a linker: ado-ado)
T9 sequence (Q92997 244-331, limits assumed, looked up): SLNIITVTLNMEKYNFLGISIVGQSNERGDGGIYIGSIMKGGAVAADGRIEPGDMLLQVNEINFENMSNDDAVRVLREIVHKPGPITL

pKd	Binder
3.88	B1
below the threshold	B2
below the threshold	B3
3.48	B4

molecular target: T10, FRMPD1, Q5SYB0; test: holdup assay; design: key: below the threshold = too weak to quantify, mostly under pKd 3.1 to 4; settings: plain residues with an end cap or a label only (N-terminal biotin on a linker: ado-ado)
T10 sequence (Q5SYB0 52-145, limits assumed, looked up): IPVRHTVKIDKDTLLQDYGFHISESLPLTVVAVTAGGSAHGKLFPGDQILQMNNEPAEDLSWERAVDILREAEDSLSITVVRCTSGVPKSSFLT

pKd	Binder
below the threshold	B1
below the threshold	B2
below the threshold	B3
below the threshold	B4

molecular target: T11, LNX2_3, Q8N448; test: holdup assay; design: key: below the threshold = too weak to quantify, mostly under pKd 3.1 to 4; settings: plain residues with an end cap or a label only (N-terminal biotin on a linker: ado-ado)
T11 sequence (Q8N448 463-564, limits assumed, looked up): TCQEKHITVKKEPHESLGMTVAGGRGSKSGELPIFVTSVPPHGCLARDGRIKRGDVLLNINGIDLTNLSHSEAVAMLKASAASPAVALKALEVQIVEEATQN

pKd	Binder
below the threshold	B1
below the threshold	B2
below the threshold	B3
below the threshold	B4

molecular target: DLG5_1, Q8TDM6; test: holdup assay; design: key: below the threshold = too weak to quantify, mostly under pKd 3.1 to 4; settings: plain residues with an end cap or a label only (N-terminal biotin on a linker: ado-ado)
Sequence (Q8TDM6 617-713): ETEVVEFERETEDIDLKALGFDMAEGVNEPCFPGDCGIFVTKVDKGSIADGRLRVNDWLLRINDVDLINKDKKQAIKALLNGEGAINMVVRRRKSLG

pKd	Binder
below the threshold	B1
below the threshold	B2
below the threshold	B3
3.63	B4

molecular target: GRIP2_6, Q9C0E4; test: holdup assay; design: key: below the threshold = too weak to quantify, mostly under pKd 3.1 to 4; settings: plain residues with an end cap or a label only (N-terminal biotin on a linker: ado-ado)
Sequence (Q9C0E4 648-740): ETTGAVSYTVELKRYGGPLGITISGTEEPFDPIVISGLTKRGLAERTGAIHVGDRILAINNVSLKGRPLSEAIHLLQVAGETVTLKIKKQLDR

pKd	Binder
below the threshold	B1
3.54	B2
below the threshold	B3
3.54	B4

molecular target: T12, GRIP1_4, Q9Y3R0; test: holdup assay; design: key: below the threshold = too weak to quantify, mostly under pKd 3.1 to 4; settings: plain residues with an end cap or a label only (N-terminal biotin on a linker: ado-ado)
T12 sequence (Q9Y3R0 467-571, limits assumed, looked up): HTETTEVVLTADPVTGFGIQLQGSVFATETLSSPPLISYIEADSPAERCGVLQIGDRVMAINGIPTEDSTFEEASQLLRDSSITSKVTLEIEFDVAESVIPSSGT

pKd	Binder
below the threshold	B1
below the threshold	B2
below the threshold	B3
below the threshold	B4
